Experimental data: the Human Domainome abundance scans (Beltran et al. 2025)

B1: Transcriptional repressor p66-beta, residues 415 to 455; numbered along this chain, Q8WXI9 (parent)
chain: VEPFVCAQCRTDFTPHWKQEKNGKILCEQCMTSNQKKALKA

Variants of: B1
Experiment: abundance fitness (aPCA) (normalised: wild type 0, dead -1); higher = more abundant; growth selection in yeast, the domain comes from the species named
Settings: Homo sapiens

Abundance fitness of substitutions, site by site:
Q35: C -0.218; L -0.365; V -0.339; S -0.087; I -0.378; P -0.223; T 0.018; G -0.152; R -0.197
S33: Q -0.017; L -0.176; M 0.048; T -0.01; W -0.379; V -0.104; F -0.919; A -0.04; H 0.121; K -0.222; E -0.007
I25: W -0.287; P 0.069; Y -0.307; Q -0.029; R -0.168; K -0.026; V -0.407; S -0.246
N22: G 0.439; D 0.011; C 0.289; A 0.05; P 0.027; K 0.066; Y 0.19; V 0.193; T 0.079; Q 0.106; R 0.208
L39: S 0.094; D -0.558; Q -0.291; E -0.108; F -0.425; Y 0.577; T -0.199
V1: G 0.024; I -0.288; M 0.212; S -0.444; F -0.17; D -0.002; K 0.195
T14: Q -0.078; A -0.185; R -0.237; W -0.521; G -0.395; L -0.035; V 0.144; C -0.145; P 0.137; Y 0.264
A7: E 0.188; H 0.534; D 0.27; P -0.091; W -0.223; V 0.363; Y -0.309; I 0.078; S 0.523; T 0.208; M -0.165
G23: A 0.148; W -0.392; C -0.137; S -0.104; M 0.422; P -0.016; V 0.092
Q8: C 0.506; T 0.864; Y 0.428; R 0.843; M 0.657; P -0.393; S 0.839; A 0.821
K40: H -0.125; G 0.06; C -0.144; T 0.071; W -0.393; L -0.467; Q -0.218; R 0.285; V -0.121; N 0.079; P 0.229
F13: G -0.116; V 0.337; W -0.213; H -0.244; A 0.139; L -0.179; E -0.007; M 0.192
C27: E -0.319; D -0.504; V -1.11; S -0.739; G -1.05; Q -0.79; Y -0.444; A -1.01; R -1.06
A38: H -0.32; D 0.046; Y -0.228; V -0.04; P -0.509; S 0.066; K 0.059
E2: M -0.019; C -0.112; L -0.469; F -0.1; V -0.227; P -0.29; N 0.866; W -0.651; Y -0.114; S -0.074
K36: F -0.324; C -0.275; D -0.239; L -0.329; Q 0.105; R -0.168; V -0.277
P15: R -0.15; D 0.212; V 0.015; L -0.018; F -0.351; C 0.051; A -0.011; I -0.154; E -0.102
N34: R -0.179; P -0.257; C -0.197; Q -0.083; F -0.206; K -0.254; Y -0.287; W -0.67; H -0.077; E 0.127
W17: T 0.564; C 0.149; I 0.013; D 0.285; S 0.127; H 0.009
H16: I -0.073; N -0.319; T 0.09; P -0.23; D 0.015; C 0.072; G -0.022; R -0.05; L -0.272; E -0.042
K37: C -0.309; D -0.191; E 0.142; S -0.056; I -0.092; A 0.018; T -0.027; P 0.1
P3: I 0.284; R 0.121; E 0.213; S 0.398; C 0.488; T -0.066
M31: E -0.033; S -0.042; Q 0.05; Y 0.161; L -0.274; R -0.178; D -0.106; V -0.083; G 0.01
E28: R -0.343; S -0.006; A -0.122; G -0.066; M -0.159; L -0.181; K -0.062; F -0.356; P -0.178; Y -0.16
V5: T 0.041; A 0.116; I -0.126; R -0.027; F -0.288; G -0.302; W -0.405; E -0.226; P -0.29; S 0.136
T11: H 0.346; R 0.1; C 0.183; V 0.587; L 0.156; M 0.436; E 0.312
E20: L -0.254; V -0.013; F -0.696
F4: R -0.19; K -0.137; N 0.34; I 0.125; G 0.044; L 0.036; T -0.126; A 0.101
K21: P 0.264; W 0.037; M -0.054; S -0.104; G 0.145
Q29: E -0.097; P -0.141; L -0.042; C -0.491; M -0.14; D -0.083; K 0.086; V -0.389; R 0.02; Y -0.329; H 0.333
R10: Y 0.518; D 0.014; L 0.585; K 0.409; P 0.352; H 1.1; E 0.27
C30: W -1.07; R -0.84; A -0.488; K -0.635; D -0.315; H -0.672
K18: Q -0.105; V 0.011; S 0.021; R -0.072; E 0.098; I -0.295
C6: D -0.718; R -1; T 0.403; G -1.02; W -0.955; Y -0.23
C9: G -0.262; Y -0.937; H 0.389; D -0.271; E -0.235; K -0.148; T -0.203; A -0.417; S -0.733; W -0.999; N -0.717
L26: V -0.196; G -0.304; W -0.113; F 0.003; M 0.358; C -0.075; R -0.145
Q19: T -0.346; N 0.136; E 0.163; G 0.323; V 0.159; D 0.212; K 0.143; M 0.026
A41: M -0.247; W 0.002; V 0.153; R -0.071
D12: Y -0.025; Q -0.208; N 0.187; H 0.081; E 0.032; F -0.149; A 0.064
K24: H 0.013; D -0.166; M -0.082; V -0.148; A -0.079; S -0.228
T32: P -0.056; F -0.143; C -0.177; M -0.145; K 0.045; A -0.047; I -0.033; Q -0.173; W -0.453; L -0.312; G -0.121; R -0.145; S -0.312
